Laboratory results as given in the supplement of paper PMC9170038.

Test system: MS2 coat protein
Assay: apparent KD of MS2 coat protein; higher = weaker reporter binding
Conditions: Eterna round: R107
Protocol: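 RNA-MaP round R107: designed RNA switches with theophylline, tryptophan, arginine or FMN aptamers are transcribed on-chip within common flanks. They are titrated with SNAP-549-labelled MS2 coat protein in RNA-MaP buffer (100 mM Tris pH 7.5, 80 mM KCl, 4 mM MgCl2), without ligand or with the indicated ligand. Median apparent KD per design.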

[1] = input ligand: theophylline 20 uM
[2] = input ligand: tryptophan 2.4 mM
[3] = input ligand: theophylline 2 mM

Sequence | apparent KD of MS2 coat protein (input ligand: arginine 13.2 mM) | apparent KD of MS2 coat protein [1] | apparent KD of MS2 coat protein [2] | apparent KD of MS2 coat protein [3] | apparent KD of MS2 coat protein (input ligand: none)
ACAUGAGGAUCACCCAUGUGCCGUCUUGAUACCAGACCCGAAGUAGUCCCUUGGCAGCAACUACGUGACGGUCGCCCAUGUGUAG [rremullin] | 14 nM | 20.4 nM | 14.7 nM |  | 
CGCCCAGUUACGGCCGCCACUUCGAUGGCAAAUGUCGAGCCUCCACAUGAGGAUCACCCAUGUCGAAGGACCGGGUACUGCUUGC [theeternabot_sameState_MS2_Trp_B_17] | 29.4 nM | 44.4 nM |  | 38 nM | 
CUACAUUUGUAGAAACCGGUCAACAAUAUUCGAGGACCGGUACGGCCGCCACUCGUAUAAUUUAAUACAUGAGGAUCACCCAUGU [Tryptophan A 4] | 14.8 nM | 18.2 nM |  | 17.1 nM | 
GGCGCUGCGUCGGCCGCCACUAGUGGGUAAUGGGUGUACAUGAGGAUCACCCAUGUAUUUUGGCCUAGGACCGGGACGUGGCGCC [Oxen] | 81.9 nM | 455 nM |  | 570 nM | 
GAUGAACUAUAUGAUACCAGACAACAUGAGGAUCACCCAUGUGAAAGUCGUCCUCUGCCUGUCCCUUGGCAGCGUAUAGUUUAUC [XTheo B #14] | 61.1 nM | 76.1 nM | 28.4 nM |  | 
GAUGAACUAUAUGAUACCAGACAACAUGAGGAUCACCCAUGUGAUUGUCGUCCUCUGCCUGUCCCUUGGCAGCGUAUAGUUUAUC [XTheo B #16] | 38.4 nM | 87.4 nM | 23.4 nM |  | 
CUCCCGUGGUCGGCCGCCACUGGAGGCCUCGCGCGACAUGAGGAUCACCCAUGUUGGCCCGGCCUCAGGACCGGGAUCGCGUGAG [#1 Same State - Tryptophan B Attempt #7 (HarryS)] | 11.2 nM | 17.9 nM | 10.9 nM | 11.9 nM | 13.7 nM
GGAGCUACGUCGGCCGCCACUAGCGGGUAUUGCGUGUACAUGAGGAUCACCCAUGUAAUACGGCCUAGGACCGGGACGUAGCUCC [Raven] | 12.1 nM | 19.1 nM | 13.8 nM | 14.5 nM | 
AGUCUAUGGAGAGAUACCAGUGAGAGCCAUAGACAUGAGGAUCACCCAUGUGACAUGGAUCACCCUUGGCAGCUCAACGAGCUCU [#20 Same State - Theophylline B] | 41 nM | 106 nM | 87.1 nM |  | 
GGCGCGAGCCAACAUGAGGAUCACCCAUGUCGAGGACCGGUACGGCCGCCACUCGAACGAGUGAAGCGCGCGCGCGCGCGCGCGC [Uaa] | 32.4 nM | 106 nM | 167 nM | 68.8 nM | 61.5 nM
AGACAUGAGGAUCACCCAUGUAGUAUGGAUACCAGAUCCAGAUUUAUCCCUUGGCAGCUGUGGUACAGCGAUGGAUUGCUCCUAG [Exclusion - Theophylline A (Freestyle 10)] | 33.5 nM | 48.5 nM | 39.2 nM |  | 
CUUAUAUAUACGGCCGCCACUUACUCAUGAGGUAACAACAUGAGGAUCACCCAUGUUUGAGGAUCAAGGACCGGGUAUAUAUAAG [AstrosSSTry#18] | 23.2 nM | 35.9 nM |  | 33.8 nM | 
UGUAUGUGAUCUGAUACCAGUCCAACUGGUAAAUCAUGAGGAUCACCCAUGGAAAAUUGGGACCCUUGGCAGCAGAUCGCAUACU | 94.1 nM | 490 nM | 1070 nM | 38.1 nM | 452 nM
CAUACUUGAUCCUAUGAGCCUAUUUGUGAUACCAGCAUCUAAAUUUGCCCUUGGCAGCACUAACAUGAGGAUCACCCAUGUUAUA [JR_Nu_ExcTheophyA_Sub028] | 23.7 nM | 42.5 nM | 37 nM |  | 
UUAUAUACUACGGCCGCCACUGAACAUGAGGAUCACCCAUGUAAUGUUCAGAUUUUUUUUUUUUACAGGACCGGGUAGAAUUAAA [Tryptophan B 2] | 67.9 nM | 127 nM |  | 206 nM | 
AAAUGUGUAAAAGCUUUAACACCCUGAGAAGGAGCGCAAUAAAUUGCAGGUAGGUCGCUCAGACAUGAGGAUCACCCAUGUAACC [Atrabeor] | 45.7 nM | 56.9 nM | 40 nM | 59.7 nM | 39.6 nM
UGACAUUGCUGCGAUACCAGACAUGAGGAUCACCCAUGUACCAAGGUACCCGAAAGGAAUGUCCCUUGGCAGCGCAGCAAUGUCU [MAT - Exclusion Theophlline B - Mod of Eli - D18] | 10.6 nM | 11.6 nM | 9.73 nM |  | 
AGCGGCUCGAAAGAGUCGCACUCAUGUGAAGGAGCGCCCGUAAGGGCAGGUAGGUCGCACAUGAGGAUCACCCAUGUACCUUCUA [MAT - Exclusion Arginine A - Mod of Eli - D20] | 87.1 nM | 255 nM | 241 nM | 316 nM | 205 nM
